Laboratory results: paper PMC6143433 (Biochemistry, 2018)

Target: the molecule itself
Experiment: SEC

B1: MftE from M. ulcerans (enzyme, UniProt A0PM51 1-250, looked up)
chain: MNSSYHRRVPVLGELGTSTSSQLPSTWPSILIPLGSTEQHGPHLPLDTDTRIATAVGRAVATRMHGRLTQCQPGWLLAPPIAYGASGEHQSFAGTISIGAEALRVLLLEYGRSAACWADRLVFVNGHGGNVEALRGAVRQLRAEGRDAGWSACGSAGGDAHAGHTETSVLLHISPEVVLTDRLSAGNAAPLAELLPSLRRGGVAAVSPIGVLGDPTTATAVEGRRIFAEMVDDCVSRIARWTPGPDGMLT
  stoichiometry N: 8
